From patent US20250270313A1

Target: human Claudin 18.2 (hClaudin18.2) (human) (UniProt P56856)
Assay: flow cytometry on CHO cells overexpressing claudin18.2

EC50: 2 µg/mL
Substance: IMAB362-FC (Fc fusion)
